T1: Bfl-1, Q16548
T1 chain: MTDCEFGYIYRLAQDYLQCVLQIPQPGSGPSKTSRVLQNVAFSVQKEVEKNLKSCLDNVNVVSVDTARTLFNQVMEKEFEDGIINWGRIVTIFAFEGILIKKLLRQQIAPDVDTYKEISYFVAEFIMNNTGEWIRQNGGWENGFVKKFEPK

T2: Mcl-1, Q07820
T2 chain: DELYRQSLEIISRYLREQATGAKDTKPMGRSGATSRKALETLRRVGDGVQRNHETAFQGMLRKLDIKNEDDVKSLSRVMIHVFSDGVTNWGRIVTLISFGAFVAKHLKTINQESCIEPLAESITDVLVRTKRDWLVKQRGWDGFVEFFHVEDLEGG


Target: T1, Bfl-1, Q16548
Test: peptide SPOT array, c-Myc-tagged receptor at 1 uM or 100 nM, anti-c-Myc-Cy3

| Binder | SPOT signal as a fraction of Bim BH3's signal on the same receptor and array |
| --- | --- |
| KGTAVAICRRLGIFLDTEDVAGKAYT | 0.09 |
| CGEWTRRSLHLRVLLRQLILPTDKGV [FAM149A] | 0.51 |
| EAVTDGLKRALRSFGNALGNCILDKD [RAD52] | 0.06 |
| SDIRDDISEQVRHVGRTVRGHPRKKL [TMEM184C] | 0.29 |
| MQTLSELAKSFQDMLDRCLLVLHLEV | 0.04 |
| PSECETLGSNDGHNADLLNENNILAK [ZFP90] | 0.04 |
| AFGLGDLPNLDGLVGDQLGDTERKRR [ADAMTS14] | 0.04 |
| VDSIRPKCQELRHLLDQFSAEIARRR [MCF2L] | 0.27 |
| APEEDFFSIHIRIVGDWTEGLFNACG [CYBB] | 0.04 |
| TSRINEVQVNLSLLGDDLLLPAQSTL [SPHKAP] | 0.03 |
| APGEEDLCAADNVICDNVGKDWRRLA [FADD] | 0.04 |
| VLAPVQLGKWDVLFCDEINLPDMDKY [DYNC1H1] | 0.07 |
| GSPDSMFGISLAVLGDLNQDGFPDIA | 0.08 |
| ADAIRPRCVEDRHLCDDFINGNKKKW | 0.07 |
| WTLFVYTKGNFRMIGDDLVNSYHLLL [RBL1] | 0.12 |
| VLLTLLVAAVLRCQLQDVQEAGSCVQ [COL2A1] | 0.04 |

| Binder | SPOT signal as a fraction of Bim BH3's signal on the same receptor and array |
| --- | --- |
| TGSLCEIATTLSFEGDGFLWVKSGSV [CRB1] | 0.03 |
| SEIMHSFAKCIEVMGDGCLNNEHFEE [IPO5] | 0.03 |
| FSKREKLVEIDRNIGDERTMVFVETK [DDX4] | 0.06 |
| MQTLSELAKSDQDMADRCLLVLHLEV | 0.04 |
| DDMFEPHSWNLKELSDDCFQQWGVRP [PRCP] | 0.05 |
| ADAIRPRCVELRHLLDDFINGNKKKW | 0.31 |
| TAGLRPGARLDRVCGQTLPSLRPEAA [SIPA1] | 0.45 |
| ACGDSVLARMDRELGDSLRRPQLRLW [SLC19A1] | 0.13 |
| TETKATFGVHLKIVLDWTERFRDLLL [NOX4] | 0.08 |
| ELLYGIWSNCLGLILDSFHMFFDSTA [SLC30A7] | 0.06 |
| LTETSLISGNDHRIGDITSCSVLWLN [FBXW5] | 0.04 |
| MQTLSELAKSFQDMADRCLLVLHLEV | 0.04 |
| QEQEQHVPFDDHTYGDQLVSRFPQLN [NCAPH2] | 0.04 |
| VTLLSEVEKMLSNFGDCVQYKEIVKN [SYNE1] | 0.06 |
| KGTAVAICRRDGIFGDTEDVAGKAYT | 0.06 |
| GSPDSMFGISLAVLLDLNQDGFPDIA | 0.07 |

Target: T2, Mcl-1, Q07820
Test: as above

| Binder | SPOT signal as a fraction of Bim BH3's signal on the same receptor and array |
| --- | --- |
| KGTAVAICRRLGIFLDTEDVAGKAYT | 0.16 |
| CGEWTRRSLHLRVLLRQLILPTDKGV [FAM149A] | 0.53 |
| EAVTDGLKRALRSFGNALGNCILDKD [RAD52] | 0.1 |
| SDIRDDISEQVRHVGRTVRGHPRKKL [TMEM184C] | 0.32 |
| MQTLSELAKSFQDMLDRCLLVLHLEV | 0.04 |
| PSECETLGSNDGHNADLLNENNILAK [ZFP90] | 0.04 |
| AFGLGDLPNLDGLVGDQLGDTERKRR [ADAMTS14] | 0.04 |
| VDSIRPKCQELRHLLDQFSAEIARRR [MCF2L] | 0.25 |
| APEEDFFSIHIRIVGDWTEGLFNACG [CYBB] | 0.09 |
| TSRINEVQVNLSLLGDDLLLPAQSTL [SPHKAP] | 0.04 |
| APGEEDLCAADNVICDNVGKDWRRLA [FADD] | 0.03 |
| VLAPVQLGKWDVLFCDEINLPDMDKY [DYNC1H1] | 0.05 |
| GSPDSMFGISLAVLGDLNQDGFPDIA | 0.04 |
| ADAIRPRCVEDRHLCDDFINGNKKKW | 0.06 |
| WTLFVYTKGNFRMIGDDLVNSYHLLL [RBL1] | 0.15 |
| VLLTLLVAAVLRCQLQDVQEAGSCVQ [COL2A1] | 0.06 |

| Binder | SPOT signal as a fraction of Bim BH3's signal on the same receptor and array |
| --- | --- |
| TGSLCEIATTLSFEGDGFLWVKSGSV [CRB1] | 0.04 |
| SEIMHSFAKCIEVMGDGCLNNEHFEE [IPO5] | 0.04 |
| FSKREKLVEIDRNIGDERTMVFVETK [DDX4] | 0.07 |
| MQTLSELAKSDQDMADRCLLVLHLEV | 0.04 |
| DDMFEPHSWNLKELSDDCFQQWGVRP [PRCP] | 0.04 |
| ADAIRPRCVELRHLLDDFINGNKKKW | 0.26 |
| TAGLRPGARLDRVCGQTLPSLRPEAA [SIPA1] | 0.63 |
| ACGDSVLARMDRELGDSLRRPQLRLW [SLC19A1] | 0.15 |
| TETKATFGVHLKIVLDWTERFRDLLL [NOX4] | 0.08 |
| ELLYGIWSNCLGLILDSFHMFFDSTA [SLC30A7] | 0.06 |
| LTETSLISGNDHRIGDITSCSVLWLN [FBXW5] | 0.03 |
| MQTLSELAKSFQDMADRCLLVLHLEV | 0.04 |
| QEQEQHVPFDDHTYGDQLVSRFPQLN [NCAPH2] | 0.04 |
| VTLLSEVEKMLSNFGDCVQYKEIVKN [SYNE1] | 0.08 |
| KGTAVAICRRDGIFGDTEDVAGKAYT | 0.08 |
| GSPDSMFGISLAVLLDLNQDGFPDIA | 0.04 |

Target: Bcl-xL, Q07817
Test: as above

Chain of Bcl-xL, Q07817 (Q07817 1-209): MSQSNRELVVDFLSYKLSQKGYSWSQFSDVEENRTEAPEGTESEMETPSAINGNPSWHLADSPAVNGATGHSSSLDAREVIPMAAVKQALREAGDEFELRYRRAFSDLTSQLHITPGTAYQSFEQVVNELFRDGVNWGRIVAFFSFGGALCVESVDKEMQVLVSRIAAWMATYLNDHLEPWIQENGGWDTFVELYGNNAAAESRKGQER

| Binder | SPOT signal as a fraction of Bim BH3's signal on the same receptor and array |
| --- | --- |
| KGTAVAICRRLGIFLDTEDVAGKAYT | 0.16 |
| CGEWTRRSLHLRVLLRQLILPTDKGV [FAM149A] | 0.53 |
| EAVTDGLKRALRSFGNALGNCILDKD [RAD52] | 0.15 |
| SDIRDDISEQVRHVGRTVRGHPRKKL [TMEM184C] | 0.92 |
| MQTLSELAKSFQDMLDRCLLVLHLEV | 0.05 |
| PSECETLGSNDGHNADLLNENNILAK [ZFP90] | 0.11 |
| AFGLGDLPNLDGLVGDQLGDTERKRR [ADAMTS14] | 0.05 |
| VDSIRPKCQELRHLLDQFSAEIARRR [MCF2L] | 0.6 |
| APEEDFFSIHIRIVGDWTEGLFNACG [CYBB] | 0.06 |
| TSRINEVQVNLSLLGDDLLLPAQSTL [SPHKAP] | 0.06 |
| APGEEDLCAADNVICDNVGKDWRRLA [FADD] | 0.06 |
| VLAPVQLGKWDVLFCDEINLPDMDKY [DYNC1H1] | 0.07 |
| GSPDSMFGISLAVLGDLNQDGFPDIA | 0.07 |
| ADAIRPRCVEDRHLCDDFINGNKKKW | 0.15 |
| WTLFVYTKGNFRMIGDDLVNSYHLLL [RBL1] | 0.13 |
| VLLTLLVAAVLRCQLQDVQEAGSCVQ [COL2A1] | 0.05 |

| Binder | SPOT signal as a fraction of Bim BH3's signal on the same receptor and array |
| --- | --- |
| TGSLCEIATTLSFEGDGFLWVKSGSV [CRB1] | 0.06 |
| SEIMHSFAKCIEVMGDGCLNNEHFEE [IPO5] | 0.09 |
| FSKREKLVEIDRNIGDERTMVFVETK [DDX4] | 0.06 |
| MQTLSELAKSDQDMADRCLLVLHLEV | 0.05 |
| DDMFEPHSWNLKELSDDCFQQWGVRP [PRCP] | 0.06 |
| ADAIRPRCVELRHLLDDFINGNKKKW | 0.56 |
| TAGLRPGARLDRVCGQTLPSLRPEAA [SIPA1] | 0.72 |
| ACGDSVLARMDRELGDSLRRPQLRLW [SLC19A1] | 0.27 |
| TETKATFGVHLKIVLDWTERFRDLLL [NOX4] | 0.07 |
| ELLYGIWSNCLGLILDSFHMFFDSTA [SLC30A7] | 0.07 |
| LTETSLISGNDHRIGDITSCSVLWLN [FBXW5] | 0.06 |
| MQTLSELAKSFQDMADRCLLVLHLEV | 0.05 |
| QEQEQHVPFDDHTYGDQLVSRFPQLN [NCAPH2] | 0.05 |
| VTLLSEVEKMLSNFGDCVQYKEIVKN [SYNE1] | 0.11 |
| KGTAVAICRRDGIFGDTEDVAGKAYT | 0.08 |
| GSPDSMFGISLAVLLDLNQDGFPDIA | 0.07 |

From paper PMC4072508, “Genome-Wide Prediction and Validation of Peptides That Bind Human Prosurvival Bcl-2 Proteins” (PLoS Computational Biology, 2014)
